Assay results reported in patent US20190062438A1 (CSL, published 2019).
Residue numbers refer to the chain shown, from its start.

How the values were obtained:
Test in all cases: SPR, kinetics, Fab over captured mutant
shCD131 M363A = target: T1, shCD131 M363A (human, UniProt P32927 17-438)
T1 construct: C-terminal 6xHis
T1 sequence: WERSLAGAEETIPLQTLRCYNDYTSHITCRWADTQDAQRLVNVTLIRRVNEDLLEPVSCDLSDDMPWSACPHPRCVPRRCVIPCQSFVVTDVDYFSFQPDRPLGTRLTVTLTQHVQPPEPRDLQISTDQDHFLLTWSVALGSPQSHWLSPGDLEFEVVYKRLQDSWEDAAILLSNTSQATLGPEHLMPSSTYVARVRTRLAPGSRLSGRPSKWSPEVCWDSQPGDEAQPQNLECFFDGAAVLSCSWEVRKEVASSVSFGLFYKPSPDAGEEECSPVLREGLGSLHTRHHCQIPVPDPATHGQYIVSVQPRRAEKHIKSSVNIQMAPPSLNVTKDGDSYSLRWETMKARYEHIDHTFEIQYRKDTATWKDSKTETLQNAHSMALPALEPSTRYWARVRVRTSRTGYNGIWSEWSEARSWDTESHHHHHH

shCD131 R418A = target: T2, shCD131 R418A (human, UniProt P32927 17-438)
T2 construct: C-terminal 6xHis
T2 sequence: T1 sequence with A347M, R402A

shCD131 D107A = target: T3, shCD131 D107A (human, UniProt P32927 17-438)
T3 construct: C-terminal 6xHis
T3 sequence: T1 sequence with D91A, A347M

Kd (shCD131 M363A): 171 nM
Kd (shCD131 R418A): 70 nM
Kd (shCD131 D107A): 191 nM
B1: 9A2 Fab (Fab, V domains shown)
VH: EVQLLESGGGLVQPGGSLRLSCAASGFTFSHYHMLWVRQAPGKGLEWVSSIRSSGGFTYYADSVKGRFTISRDNSKNTLYLQMNSLRAEDTAVYYCARFYDSFFDIWGQGTMVTVSS
VL: DIQMTQSPSSVSASVGDRVTITCRASQGISSWLAWYQQKPGKAPKLLIYAASSLQSGVPSRFSGSGSGTDFTLTISSLQPEDFATYYCQQANSFPITFGQGTRLEIKR
notes: also called recombinant Fab of 9A2
